Where two headings read alike, the source gives them in different places. Where no end group is shown, it is not given here. Side-chain parts run from the residue outwards. [ ]: non-standard residue; d: D form. lisinopril monoester = lisinopril with its ethyl ester not hydrolysed, amide-linked to γ-Abu; linker type G21 = not defined here; linker type C9 = not defined here; pGlu = O=C1CC[C@@H](C(=O)O)N1; AEEA = NCCOCCOCC(=O)O; GABA = NCCCC(=O)O
Tests used:
[1] = molecular target: T1, human GIP receptor (human, UniProt P48546 22-466); test: displacement of 30 pM 125I-GIP from HEK-GIPR membranes by 10 nM conjugate, relative to human GIP (100%)
T1 construct: whole, on cells; Membrane fractions of HEK-GIPR cells were used; also called HEK-GIPR
T1 sequence (looked up): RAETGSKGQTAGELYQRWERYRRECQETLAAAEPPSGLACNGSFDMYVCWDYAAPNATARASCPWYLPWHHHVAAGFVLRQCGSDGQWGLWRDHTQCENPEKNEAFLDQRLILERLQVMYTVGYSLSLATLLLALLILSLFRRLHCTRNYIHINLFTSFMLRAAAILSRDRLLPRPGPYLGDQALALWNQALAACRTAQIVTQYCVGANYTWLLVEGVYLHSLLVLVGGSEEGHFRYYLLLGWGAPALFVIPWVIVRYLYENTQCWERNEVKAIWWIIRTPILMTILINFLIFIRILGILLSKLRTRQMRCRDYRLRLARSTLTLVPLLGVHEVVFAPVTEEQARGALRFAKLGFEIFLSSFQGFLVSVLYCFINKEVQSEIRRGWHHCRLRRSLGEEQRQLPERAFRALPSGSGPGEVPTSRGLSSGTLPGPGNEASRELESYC
Description: Membrane fractions were prepared from confluent cell cultures of HEK-GIPR, snap frozen, and stored at −80° C. until use. […] Reactions were allowed to proceed to equilibrium for 90 minutes at room temperature with constant shaking. The reaction mixtures were then filtered through 96-well glass fiber filter plates separating bound and unbound fractions of radioligand.

[2] = molecular target: Recombinant DPP-IV; test: cell-based or functional assay
[3] = molecular target: T2, GLP-1 receptor endogenously expressed by RIN m5f cells (UniProt P32301 22-463, limits assumed); test: displacement of [125I]GLP-1 tracer from RIN m5f cell membranes (endogenous GLP-1 receptor), filter binding
T2 construct: whole, on cells; Membrane fractions were used in the assays
T2 sequence (looked up): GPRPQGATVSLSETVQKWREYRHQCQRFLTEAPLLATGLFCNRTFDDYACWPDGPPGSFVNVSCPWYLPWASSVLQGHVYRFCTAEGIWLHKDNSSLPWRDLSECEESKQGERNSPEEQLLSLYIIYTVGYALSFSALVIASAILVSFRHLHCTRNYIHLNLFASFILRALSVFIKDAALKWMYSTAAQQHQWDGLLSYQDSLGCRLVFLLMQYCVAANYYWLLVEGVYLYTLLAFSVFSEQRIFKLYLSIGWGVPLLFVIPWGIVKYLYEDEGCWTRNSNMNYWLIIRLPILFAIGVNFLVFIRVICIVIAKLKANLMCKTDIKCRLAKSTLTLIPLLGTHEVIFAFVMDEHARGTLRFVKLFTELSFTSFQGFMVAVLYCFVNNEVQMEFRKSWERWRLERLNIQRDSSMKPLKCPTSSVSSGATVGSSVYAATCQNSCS
Description: Membrane fractions were prepared from confluent cultures of RIN m5f cells. […] The reaction mixtures were constantly mixed at 23° C. for 2 hours. The reaction mixtures were filtered through glass filter pads presoaked with 0.3% PEI solution and rinsed with ice-cold phosphate buffered saline. Counts bound to the filer pads were determined using a scintillation counter and binding affinities were calculated using GraphPad PRISM® software (GraphPad Software, Inc., San Diego, Calif.).

[4] = molecular target: T2, GLP-1 receptor endogenously expressed …; test: cell-based or functional assay
[5] = molecular target: Recombinant DPP-IV; test: cell-based or functional assay; remark: listed apart in the source
[6] = molecular target: T3, ACE from rabbit lung (rabbit, UniProt P12822 34-1310, limits assumed); test: cell-based or functional assay
T3 sequence (looked up): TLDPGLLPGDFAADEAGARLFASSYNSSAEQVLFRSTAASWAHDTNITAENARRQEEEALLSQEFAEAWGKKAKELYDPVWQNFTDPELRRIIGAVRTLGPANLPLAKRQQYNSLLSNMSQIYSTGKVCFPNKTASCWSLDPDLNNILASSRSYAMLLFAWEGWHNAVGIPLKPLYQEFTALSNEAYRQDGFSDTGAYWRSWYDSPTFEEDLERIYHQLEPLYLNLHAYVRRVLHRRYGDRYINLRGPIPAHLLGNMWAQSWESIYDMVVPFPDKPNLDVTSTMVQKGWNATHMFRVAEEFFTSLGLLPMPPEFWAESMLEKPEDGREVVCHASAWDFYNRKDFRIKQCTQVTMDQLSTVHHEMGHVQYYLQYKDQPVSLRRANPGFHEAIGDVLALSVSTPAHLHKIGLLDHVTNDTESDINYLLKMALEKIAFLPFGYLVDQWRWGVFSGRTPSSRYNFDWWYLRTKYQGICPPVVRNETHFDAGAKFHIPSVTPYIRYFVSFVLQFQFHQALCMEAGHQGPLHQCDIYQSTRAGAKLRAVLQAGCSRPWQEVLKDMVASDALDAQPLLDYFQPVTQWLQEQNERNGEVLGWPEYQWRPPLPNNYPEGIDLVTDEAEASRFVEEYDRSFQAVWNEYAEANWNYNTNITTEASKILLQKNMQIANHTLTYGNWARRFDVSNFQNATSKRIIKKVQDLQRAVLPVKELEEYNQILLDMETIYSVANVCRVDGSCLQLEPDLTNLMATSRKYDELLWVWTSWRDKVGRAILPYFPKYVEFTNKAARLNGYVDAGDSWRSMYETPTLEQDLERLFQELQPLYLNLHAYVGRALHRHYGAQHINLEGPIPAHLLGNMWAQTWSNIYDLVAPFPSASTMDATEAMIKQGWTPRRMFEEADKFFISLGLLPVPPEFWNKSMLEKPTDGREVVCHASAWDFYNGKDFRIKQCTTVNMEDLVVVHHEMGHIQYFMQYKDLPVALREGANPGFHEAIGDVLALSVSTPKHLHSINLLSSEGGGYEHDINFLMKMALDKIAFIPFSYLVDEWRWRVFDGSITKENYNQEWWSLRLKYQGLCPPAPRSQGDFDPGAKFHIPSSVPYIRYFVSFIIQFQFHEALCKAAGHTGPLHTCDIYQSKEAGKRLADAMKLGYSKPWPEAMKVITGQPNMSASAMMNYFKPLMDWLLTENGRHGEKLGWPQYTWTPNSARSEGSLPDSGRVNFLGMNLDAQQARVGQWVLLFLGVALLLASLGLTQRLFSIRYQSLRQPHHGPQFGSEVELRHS

[7] = molecular target: T4, GLP-1 receptor endogenously expressed by the thyroid c-cell carcinoma line 6-23 (UniProt P32301 22-463); test: cell-based or functional assay
T4 sequence (looked up): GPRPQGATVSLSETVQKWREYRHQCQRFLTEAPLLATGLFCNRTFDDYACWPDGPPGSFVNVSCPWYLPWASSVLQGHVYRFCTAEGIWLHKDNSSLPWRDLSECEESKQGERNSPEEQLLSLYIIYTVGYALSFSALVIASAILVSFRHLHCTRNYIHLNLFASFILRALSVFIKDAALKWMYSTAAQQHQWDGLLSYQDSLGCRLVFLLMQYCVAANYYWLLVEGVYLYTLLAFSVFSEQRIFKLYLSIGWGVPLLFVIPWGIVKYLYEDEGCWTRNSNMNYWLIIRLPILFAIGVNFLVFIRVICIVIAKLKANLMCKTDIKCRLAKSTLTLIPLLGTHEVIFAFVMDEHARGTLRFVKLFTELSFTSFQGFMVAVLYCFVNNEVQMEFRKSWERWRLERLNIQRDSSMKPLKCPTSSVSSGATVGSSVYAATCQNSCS

[8] = molecular target: T3, ACE from rabbit lung; test: cell-based or functional assay; remark: listed apart in the source

B1: GIP(1-30)-Ado-Ado-Lys-N-ε-(2-(S)-cyano pyrrolidyl) (peptide)
peptide: YAEGTFISDYSIAMDKIHQQDFVNWLLAQK
modifications: C-terminus extended by Ado-Ado-Lys-N-ε-(2-(S)-cyano pyrrolidyl)
With B1 the “GIP RBA % inhibition at 10 nM” value [1] was 97%.

B2: Diprotin A (Ile-Pro-Ile) (peptide)
peptide: IPI
For B2, the “DPP-IV inhibition IC50” value [2] was 5100 nM.

B3: GIP(1-30)-Ado-Lys-N-ε-(2-(S)-cyano pyrrolidyl) (peptide)
peptide: YAEGTFISDYSIAMDKIHQQDFVNWLLAQK
modifications: C-terminus extended by Ado-Lys-N-ε-(2-(S)-cyano pyrrolidyl)
B3 was tested, and the “GIP RBA % inhibition at 10 nM” value [1] was 99%.

B4: GLP-1(7-37)-GG-(S)-2,6-diamino-1-(thiazolidin-3-yl)hexan-1-one amide (peptide)
peptide: HAEGTFTSDVSSYLEGQAAKEFIAWLVKGRGGG
modifications: C-terminal Gly amide-linked to (S)-2,6-diamino-1-(thiazolidin-3-yl)hexan-1-one (Lys-thiazolidide, DPP-IV inhibitor motif)
notes: also called Cmpd 4844; 4844
With B4 the IC50 [3] was 0.087 nM, the “GLP Cyclase EC50” value [4] was 0.13 nM and the “DPP-IV IC50” value [5] was 91 nM.

B5: GLP-1(7-37)-GG-(S)-2,6-diamino-1-(thiazolidin-2-cyano-3-yl)hexan-1-one amide (peptide)
peptide: HAEGTFTSDVSSYLEGQAAKEFIAWLVKGRGGG
modifications: C-terminal Gly amide-linked to (S)-2,6-diamino-1-(thiazolidin-2-cyano-3-yl)hexan-1-one (Lys-2-cyanothiazolidide, DPP-IV inhibitor motif)
notes: also called Cmpd 4845; 4845
B5 was tested, and the IC50 [3] was 0.1 nM, the “GLP Cyclase EC50” value [4] was 0.4 nM and the “DPP-IV IC50” value [5] was 76 nM.

B6: Compound 5714 (peptide)
peptide: HAEGTFTSDVTQQLDEKAAKEFIDWLINGGPSKEIIS-{linker type C9-lisinopril}
modifications: reading uncertain
With B6 the “ACE inhibition IC50” value [6] was 350 nM and the “GLP Cyclase EC50” value [7] was 2.93 nM.

B7: GLP-1(7-37)-γ-Abu-β-Ala-CONH-lisinopril diacid (peptide)
peptide: HAEGTFTSDVSSYLEGQAAKEFIAWLVKGRG
modifications: C-terminus extended by γ-Abu-β-Ala and amide-linked (CONH) to lisinopril diacid
For B7, the “ACE inhibition IC50” value [8] was 180 nM.

B8: Compound 5607 (peptide)
peptide: HAEGTFTSDVSSYLEGQAAKEFIAWLVKGRG
modifications: lisinopril joined at the C-terminus through linker type G21 (FIG. 2)
B8 was tested, and the “ACE inhibition IC50” value [6] was 100 nM.

B9: Compound 5547 (peptide)
peptide: HAEGTFTSDVSSYLEGQAAKEFIAWLVKGRG
modifications: lisinopril joined at the C-terminus through linker type C9 (FIG. 2)
In the case of B9, the “ACE inhibition IC50” value [6] is reported as 180 nM.

B10: [^2D-Ala^14Leu] GIP(1-30)-βAla-βAla-ε-NH-Lys(α-NH-Pyroglutamoyl)-Trp-Ala-Pro (peptide)
peptide 1: Y[dA]EGTFISDYSIALDKIHQQDFVNWLLAQK
peptide 2: [pGlu]KWAP-OH
modifications: not fully specified (C-terminus); printed as [^2D-Ala^14Leu] GIP(1-30)-βAla-βAla-ε-NH-Lys(α-NH-Pyroglutamoyl)-Trp-Ala-Pro; also: linker at chain B 2 to a chain's C-terminus via βAla-βAla
notes: also called [^2D-Ala,^14Leu]; GIP-(1-30)-β-Ala-β-Ala-Lys(α-NH-Pyroglutamoyl)-Trp-Ala-Pro-COOH
With B10 the “GIP RBA % inhibition at 10 nM” value [1] was 66%.

B11: [^2D-Ala] GIP(1-30)-Ado-Ado-Aun-βAla-βAla-ε-NH-Lys(α-NH-Pyroglutamoyl)-Trp-Ala-Pro (peptide)
peptide 1: Y[dA]EGTFISDYSIAMDKIHQQDFVNWLLAQK
peptide 2: [pGlu]KWAP
modifications: not fully specified (C-terminus); printed as [^2D-Ala] GIP(1-30)-Ado-Ado-Aun-βAla-βAla-ε-NH-Lys(α-NH-Pyroglutamoyl)-Trp-Ala-Pro; also: linker at chain B 2 to a chain's C-terminus via Ado-Ado-Aun-βAla-βAla
In the case of B11, the “GIP RBA % inhibition at 10 nM” value [1] is reported as 70%.

B12: GLP-1(7-37)-γ-Abu-N^ε2Lys-(Pyr)-WAP-OH (peptide)
peptide 1: HAEGTFTSDVSSYLEGQAAKEFIAWLVKGRG
peptide 2: [pGlu]KWAP-OH
modifications: not fully specified (C-terminus); also: linker at chain B 2 to a chain's C-terminus via γ-Abu
With B12 the “ACE inhibition IC50” value [8] was > 10000 nM.

B13: N-(γ-L-Glu-2-(S)-cyano pyrrolidyl)-Ado-Ado) GIP(1-30) (peptide)
peptide: YAEGTFISDYSIAMDKIHQQDFVNWLLAQK
modifications: not fully specified (N-terminus)
In the case of B13, the “GIP RBA % inhibition at 10 nM” value [1] is reported as 32%.

B14: Lys^30 N-ε-(Ado-(γ-L-Glu-2-(S)-cyano pyrrolidyl)) GIP(1-30) (peptide)
peptide: YAEGTFISDYSIAMDKIHQQDFVNWLLAQK([AEEA-γ‑L‑Glu‑2‑(S)‑cyano pyrrolidyl])
With B14 the “GIP RBA % inhibition at 10 nM” value [1] was 33%.

B15: [^14Leu] GIP(1-30)-Ado-Lys-N-ε-(2-(S)-cyano pyrrolidyl) (peptide)
peptide: YAEGTFISDYSIALDKIHQQDFVNWLLAQK-{AEEA-Lys‑N‑ε‑(2-(S)-cyano pyrrolidyl)}
B15 was tested, and the “GIP RBA % inhibition at 10 nM” value [1] was 100%.

B16: Compound 4202 (peptide)
peptide: HAEGTFTSDVTQQLDEKAAKEFIDWLINGGPSKEIIS
With B16 the “GLP Cyclase EC50” value [7] was 0.03 nM.

B17: GLP-1(7-37)-γ-Abu-CONH-lisinopril monoester (peptide)
peptide: HAEGTFTSDVSSYLEGQAAKEFIAWLVKGRG-{GABA-lisinopril monoester}
For B17, the “ACE inhibition IC50” value [8] was > 100000 nM.

B18: Compound 5713 (peptide)
peptide: HAEGTFTSDVTQQLDEKAAKEFIDWLINGGPSKEIIS-{linker type G21-lisinopril}
modifications: reading uncertain
With B18 the “ACE inhibition IC50” value [6] was 700 nM and the “GLP Cyclase EC50” value [7] was 2.89 nM.

B19: GLP-1 (peptide)
peptide: HAEGTFTSDVSSYLEGQAAKEFIAWLVKGR-NH2
In the case of B19, the “DPP-IV IC50” value [5] is reported as > 3300 nM.

Reference: patent US20100286365A1 (AMYLIN PHARMACEUTICALS, published 2010)
